Experiments:
[1] = target: T1, human h-GITR-his antigen (Sino Biological, Cat. #13643-H08H) (human, UniProt Q9Y5U5 26-161); assay: SPR (Biacore T200), antibody captured on Protein A chip, h-GITR-his as analyte, 1:1 Langmuir fit
T1 construct: Bought protein; also called GITR antigen; not shown: His tag
T1 sequence (looked up): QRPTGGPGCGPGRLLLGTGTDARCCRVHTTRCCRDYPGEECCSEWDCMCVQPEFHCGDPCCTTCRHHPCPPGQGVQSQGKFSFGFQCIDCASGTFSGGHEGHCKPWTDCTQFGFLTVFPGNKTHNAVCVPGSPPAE
Experimental: The affinities of humanized anti-GITR antibodies to be tested and human GITR were measured by Biacore, GE instruments.
A Protein A biosensor chip (Cat. 29-1275-56, GE) for a Biacore Instrument (Biacore T200, GE) was used to affinity-capture a certain amount of antibodies to be tested, and then a series of concentration gradients of GITR antigen (human h-GITR-his antigen was selected from Sino Biological Company (Cat. #13643-H08H)) were flowed through the surface of the chip. Real-time reaction signals were detected by a Biacore Instrument (Biacore T200, GE), thus obtaining the binding and dissociation curves. The biochip was rinsed and regenerated with 10 mM glycine pH 1.5 after each dissociation cycle, and the buffer was PBST, pH7.4. The experimental data were fitted with (1:1) Langmuir model using Biacore T200 Evaluation 2.0, GE software, and the affinity values were obtained, as shown in Table 2.

[2] = target: T2, human GITR with mFc tag (huGITR-mFc) (human); assay: ELISA, huGITR-mFc coated at 1 ug/ml
T2 chain: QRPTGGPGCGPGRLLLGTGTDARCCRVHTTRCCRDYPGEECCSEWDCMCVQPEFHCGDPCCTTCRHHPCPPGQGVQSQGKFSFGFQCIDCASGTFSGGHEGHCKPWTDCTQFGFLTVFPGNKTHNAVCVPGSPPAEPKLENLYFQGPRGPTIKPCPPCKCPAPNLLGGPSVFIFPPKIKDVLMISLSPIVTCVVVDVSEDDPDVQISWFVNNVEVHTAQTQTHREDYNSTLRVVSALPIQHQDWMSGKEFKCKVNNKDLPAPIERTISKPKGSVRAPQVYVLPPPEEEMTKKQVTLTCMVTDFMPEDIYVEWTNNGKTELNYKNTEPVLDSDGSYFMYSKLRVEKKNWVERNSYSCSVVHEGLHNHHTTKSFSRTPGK
Experimental: The huGITR-mFc was diluted to 1 μg/ml with CBS buffer pH 9.5, added to the 96-well microplate at 50 μl/well, and incubated overnight at 4° C. The supernatant was discarded prior to 300 μl/well of 1% BSA blocking buffer diluted with PBS to the wells, and the plate was incubated for 2.5h at 37° C. in an incubator for blocking. After blocking, the blocking buffer was discarded, and the plate was washed three times with PBST buffer (pH 7.4 PBS containing 0.05% tween-20). 50 μl/well of the antibodies to be tested were added, with the antibodies being diluted to different concentrations with sample diluent, and the plate was incubated at 37° C. in an incubator for 30 minutes. The plate was then washed with PBST three times, and 50 μL/well of Peroxidase AffiniPure Goat Anti-Human secondary antibody (Jackson immune research, 115-035-088) diluted with sample diluent was added, followed by incubating at 37° C. for 30 minutes. After washing the plate with PBST three times, 50 μl/well of TMB chromogenic substrate was added and the plate was incubated at room temperature for 5 minutes prior to adding 50 μl/well of 1M […] to terminate the reaction. The absorption value at 450 nm was read by a MD plus 384 microplate reader. The data were analyzed with SoftMax Pro6.2.1 to obtain binding EC50 values of the anti-GITR antibodies to GITR, as shown in Table 1.

[3] = target: T2, human GITR with mFc tag (huGITR-mFc); assay: ELISA, blocking of GITRL-His binding to coated GITR-Fc
Experimental: huGITR-mFc was diluted to 2 μg/ml with CBS buffer pH 9.5, added to the 96-well microplate at a volume of 50 μl/well, and incubated overnight at 4° C. The supernatant was discarded prior to adding 300 μl/well of 1% BSA blocking buffer diluted with PBS, and the plate was incubated for blocking for 2.5h at 37° C. in an incubator. After blocking, the blocking buffer was discarded, and the plate was washed three times with PBST buffer (pH 7.4 PBS containing 0.05% tween-20) prior to adding antibodies for pre-incubation, wherein the antibodies were diluted into gradient concentrations with sample diluent. 0.15 μg/ml of GITRL-His protein in a volume of 50 μl/well was added, mixed and incubated at 37° C. in an incubator for 30 minutes. The reaction buffer was then discarded, the plate was washed with PBST three times, and 50 μL/well of Peroxidase AffiniPure Goat Anti-Human secondary antibody diluted with sample diluent at a ratio of 1:4000 was added, then the place was incubated at 37° C. for 30 minutes. After washing the plate with PBST three times, 50 μl/well of TMB chromogenic substrate was added and the plate was incubated at room temperature for 5 minutes prior to adding 50 μl of 2M H₂SO₄ to terminate the reaction. The absorption value at 450 nm was read by a MD plus 384 microplate reader. The EC50 values of GITR antibodies binding to GITR were obtained by analyzing the data with SoftMax Pro6.2.1, as shown in Table 1.

[4] = target: cynomolgus GITR (cyno-GITR) (cynomolgus); assay: ELISA, cyno GITR coated at 1 ug/ml
Experimental: (§1) The GITR proteins from different species (mouse/cyno GITR) were diluted to 1 μg/ml with PBS buffer pH 9.5, and 50 μl/well was added to a 96-well microplate, which was incubated overnight (16-18 hours) at 4° C. The buffer in the plate was discarded prior to adding 300 μl/well of 1% BSA blocking buffer diluted with PBS, and the plate was incubated for blocking for 2.5h at 37° C. in an incubator. After blocking, the blocking buffer was discarded, and the plate was washed three times with PBST buffer (pH 7.4 PBS containing 0.05% tween-20). 50 μl/well antibodies to be tested were added to the plate, wherein the antibodies were diluted to different concentrations with sample diluent (pH7.4 PBS), and the plate was incubated at 37° C. in an incubator for 30 minutes. After incubation, the reaction buffer in the microplate was discarded prior to washing the plate with PBST three times, and 50 μL/well of Peroxidase AffiniPure Goat Anti-Human secondary antibody (JacksonImmunoResearch, 109-035-088) which was diluted with sample diluent was added, and the plate was incubated at 37° C. for 1 hour. […] The absorption value at 450 nm was read by a MD plus 384 microplate reader.

[5] = target: T3, mouse GITR (mouse, UniProt O35714 20-153, limits assumed); assay: ELISA, mouse GITR coated at 1 ug/ml
T3 sequence (looked up): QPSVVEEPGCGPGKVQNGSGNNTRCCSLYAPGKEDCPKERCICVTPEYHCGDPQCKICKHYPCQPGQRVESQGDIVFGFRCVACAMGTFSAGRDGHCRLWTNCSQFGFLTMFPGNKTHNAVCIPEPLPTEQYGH
Experimental: as §1

B1: humanized anti-GITR antibody hu8A11 (antibody, human IgG1, kappa, V domains shown)
VH: EVQLVESGGGLVQPGGSLRLSCAASGFTFSSYAMSWVRQAPGKGLEWVAYISSGGSTYYPDSVKGRFTISRDNAKNSLYLQMNSLRAEDTAVYYCAREGYGTYGDYWGQGTTLTVSS
VL: DIVMTQSPSSLAVSVGERVTISCKSSQSLLYSTNQKNYLAWYQQKPGQSPKLLIYWASTRESGVPDRFSGSGSGTDFTLTISSLQAEDVAVYYCQQYYSYLRTFGGGTKLEIKR
notes: also called h8A11
Work on B1 yielded a Kd [1] of 620 pM, a koff [1] of 0.000104 s⁻¹ and a kon [1] of 168000 M⁻¹ s⁻¹.

B2: mouse monoclonal antibody 7D9 (antibody, V domains shown)
VH: DVQLQESGPGLVKPSQSLSLTCTVTGYSITSDYAWNWIRQFPGNKLEWLGYISYSGSTYYNPSLKSRISLTRDTSKNQFFLQLNSVTSEDTATYYCARWDYRYDGRGFDYWGQGTTLTVSS
VL: DIQMTQSPSSLSASLGERVSLTCRASQDIGSGLNWLQQEPDGTIKRLIYATSSLDSGVPKRFSGSRSGSDYSLTISSLESEDFVDYNCLQYTSTPWTFGGGTKLEIK
notes: Mouse antibody from a hybridoma
Binder B2 has an EC50 [2] of 55 pM and an IC50 [3] of 3890 pM.

B3: mouse monoclonal antibody 8A11 (antibody, V domains shown)
VH: EVKLVESGGGLVKPGGSLKLSCAASGFTFSSYAMSWVRQTPEKRLEWVAYISSGGSTYYPDSVKGRFTISRENARNILYLQMSSLRSEDTAMYYCAREGYGTYGDYWGQGTTLTVSS
VL: DIVMSQSPSSLAVSVGEKVTMSCKSSQSLLYSTNQKNYLAWYQQKPGQSPKLLIYWASTRESGVPDRFTGSGSGTDFTLTISSVKAEDLAVYYCQQYYSYLRTFGGGTKLEIK
notes: as for B2
With B3 the EC50 [4] was 5210 pM, the EC50 [2] was 77 pM and the binding result [5] was “no binding”. For the same binder, the IC50 [3] was 7570 pM.

B4: mouse monoclonal antibody 16G9 (antibody, V domains shown)
VH: QVQLQQSGAELAKPGASVKMSCKASGYTFTTYWIHWIKQRPGQGLEWIGYINPSTGYTDYNQNFKDKATLTADQYSSTAYMQLSSLTFEDSAVYYCANYYGSTPYYWGRGTTLTVSS
VL: QIVLTQSPAIMSASPGEKVTMTCSASSSVTYVHWYQQKSGASPERWIFDASKLASGVPARFSGSGSGTSYSLTISSMETEDAATYYCQQWSSNPLTFGAGTKLELK
notes: as for B2
B4 was tested, and the EC50 [2] was 75 pM and the IC50 [3] was 10300 pM.

B5: mouse monoclonal antibody 18F10 (antibody, V domains shown)
VH: QVQLQQSGAELVRPGVSVKISCKCSGYTFTGYDLHWVKQSHAKSLDWIGVISTYYGDANYNQKFKGKATMTVDKSSSTAYMELARLTSEDSAIYYCTRLAESYFFDYWGQGTTLTVSS
VL: QILLTQSPAIMSASPGEKVTMTCRASSSVSYIHWYQQKPGSSPKPWIYDTSDLASGFPARFSGTGSGTSYSLIISSMEAEDAATYYCHQRSSYPFTFGSGTKLEIK
notes: as for B2
In the case of B5, the EC50 [4] is reported as 744 pM, the EC50 [2] is reported as 103 pM and the binding result [5] is reported as “no binding”. For the same binder, the IC50 [3] was 6040 pM.

B6: reference antibody BMAB (Merck's MK-4166 antibody) (antibody, V domains shown)
VH: QVQLQQSGAEVKKPGSSVRVSCKASGGTFNNNAINWVRQAPGQGLEWMGGIIPMFGTAKYSQNFQGRVAITADESTGTASMELSSLRSEDTAVYYCARSRDLLLFPHHALSPWGRGTMVTVSS
VL: SSELTQDPAVSVALGQTVRVTCQGDSLRSYYASWYQQKPGQAPVLVIYGKNNRPSGIPDRFSGSSSGNTASLTITGAQAEDEADYYCSSRDSSGNHWVFGGGTELTVLG
B6 gave a Kd [1] of 185 pM, an EC50 [2] of 74 pM and an IC50 [3] of 1390 pM.

B7: humanized anti-GITR antibody hu18F10 (antibody, human IgG1, kappa, V domains shown)
VH: QVQLVQSGAEVVKPGASVKVSCKASGYTFTGYDLHWVRQAPGQGLEWIGVISTYYGDANYNQKFQGRVTMTVDTSSSTAYMELSRLRSEDTAVYYCTRLAESYFFDYWGQGTTLTVSS
VL: EIVLTQSPATLSASPGERVTLTCRASSSVSYLHWYQQKPGQAPKPWIYDTSNLASGFPARFSGDGSGTDYTLTISSLEAEDAAVYYCHQRSSYPFTFGSGTKLEIKR
For B7, the Kd [1] was 330 pM, the koff [1] was 0.000204 s⁻¹ and the kon [1] was 613000 M⁻¹ s⁻¹.

From patent publication US20200131263A1 (JIANGSU HENGRUI MEDICINE, published 2020)
